The target in experiment [1] is CSVTCG peptide derived from TSP1 properdin-like Type 1 repeat. Nature of the experiment: solid phase binding, 125I-gp120 on immobilized peptide, saturation isotherms.
Experiment [2] addresses CHO cell-expressed soluble recombinant CD4 (UniProt P01730). Put plainly: competition: 125I-CD4 on immobilized gp120 (MN and LAI), 10-fold molar excess of fusion protein.
Experiment [3] addresses Recombinant baculovirus-expressed HIV-1 gp120 derived from the LAV isolate (HIV-1 isolate LAV (LAI)) (UniProt P03377). Put plainly: competition: 125I-CD4 on immobilized gp120, 10-fold molar excess of peptide; isolate (MN or LAI) not stated.
For experiment [4], the target named is Recombinant baculovirus-expressed HIV-1 gp120 derived from the MN isolate (HIV-1 isolate MN) (UniProt P05877). The experiment is described as above.

By Kd is commonly meant the free concentration of one partner at which half of the binding sites on the other are occupied at equilibrium, for simple one-to-one binding. Read a high Kd as weaker binding. In turn, “Recombinant baculovirus-expressed HIV-1 gp120 derived from the LAV isolate (from UniProt P03377 33-516)” returned a Kd in experiment [1] of 0.3 µM. For orientation: % inhibition means the drop in the measured response relative to a control, in per cent. “GST/CD36 fusion protein CFP67-157 (from UniProt P16671 67-157)”: the % inhibition in experiment [2] was found to be 89%. In the case of “GRGDS peptide derived from TSP1 calcium binding Type 3 repeat”, the % inhibition in experiment [3] and in experiment [4] was 4% throughout. For the substance “GST/LIMPII fusion protein LFP156-243 (from UniProt Q14108 156-243)”, the % inhibition in experiment [2] is 32%. Take “CSVTCG peptide derived from TSP1 properdin-like Type 1 repeat”: the % inhibition in experiment [4] was found to be 53%. As for “GST/LIMPII fusion protein LFP75-155 (from UniProt Q14108 75-155)”, the % inhibition in experiment [2] was 89%.

These data come from patent US6964763.
